Earlier results as cited in publication PMC12250766.
Read-outs that look alike come from different tables or passages of the source.

Columns and labels:
[1] = molecular target: PSGL-1 model glycosulfopeptide (Homo sapiens) (UniProt Q14242)
[2] = molecular target: PSGL-1 model glycosulfopeptide (Homo sapiens) (UniProt Q14242); remark: listed apart in the source
[3] = molecular target: PSGL-1 model glycopeptide (Homo sapiens) (UniProt Q14242)
PSGL-1 (Homo sapiens) [4] = molecular target: PSGL-1 (Homo sapiens) (UniProt Q14242)
PSGL-1 (Homo sapiens) [5] = molecular target: PSGL-1 (Homo sapiens) (UniProt Q14242); remark: listed apart in the source

For P-selectin (from UniProt P16109), the Kd [1] is listed as 6 µM, the Kd [2] is listed as 0.65 µM and the Kd [3] is listed as 25 µM.

In the case of L-selectin (from UniProt P14151), the Kd (PSGL-1 (Homo sapiens) [4]) is given as 5 µM.

For E-selectin (from UniProt P16581), the Kd (PSGL-1 (Homo sapiens) [5]) is given as 15 µM.
